From paper PMC2743556

Molecular target: D-galactose receptor (human (endogenous in SHIN3))
Assay: flow cytometry on cells

For “TAMRA conjugated avidin (from UniProt P02701 25-152) (ligand)”, the mean value of fluorescence (FACS flow cytometry) was 10.9.
